Numbered stars: 1 amine (or outer) side, 2 acyl side, 3 side chain; on linkers, the order of the positions; unused ones are H or OH. Square brackets hold non-standard residues; d marks the D form. Side chains are listed from the residue outwards. Ends that are not written are not given here. * marks the point of attachment. C20 diacid = O=C(O)CCCCCCCCCCCCCCCCCCC(=O)*; C18 diacid = O=C(O)CCCCCCCCCCCCCCCCC(=O)*; γGlu = O=C(O)[C@H](CCC(=O)[*:2])N[*:1]; Palmitoyl = CCCCCCCCCCCCCCCC(=O)*; AEEA = NCCOCCOCC(=O)O; Aib = CC(C)(N)C(=O)O
B1: Compound 5 (peptide)
peptide: HXQGTFTSDKSKYLXERAAKEFVXWLEGGPSSG
HELM: PEPTIDE1{H.[Aib].Q.G.T.F.T.S.D.K.S.K.Y.L.E.E.R.A.A.K.E.F.V.E.W.L.E.G.G.P.S.S.G.[am]}|PEPTIDE2{[CCCCCCCCCCCCCCCC(=O)[*:2]].[gGlu].[gGlu]}$PEPTIDE1,PEPTIDE2,10:R3-3:R2$$$V2.0; N-terminus assumed
SMILES: CCCCCCCCCCCCCCCC(=O)N[C@@H](CCC(=O)N[C@@H](CCC(=O)NCCCC[C@H](NC(=O)[C@H](CC(=O)O)NC(=O)[C@H](CO)NC(=O)[C@@H](NC(=O)[C@H](Cc1ccccc1)NC(=O)[C@@H](NC(=O)CNC(=O)[C@H](CCC(N)=O)NC(=O)C(C)(C)NC(=O)[C@@H](N)Cc1c[nH]cn1)[C@@H](C)O)[C@@H](C)O)C(=O)N[C@@H](CO)C(=O)N[C@@H](CCCCN)C(=O)N[C@@H](Cc1ccc(O)cc1)C(=O)N[C@@H](CC(C)C)C(=O)N[C@@H](CCC(=O)O)C(=O)N[C@@H](CCC(=O)O)C(=O)N[C@@H](CCCNC(=N)N)C(=O)N[C@@H](C)C(=O)N[C@@H](C)C(=O)N[C@@H](CCCCN)C(=O)N[C@@H](CCC(=O)O)C(=O)N[C@@H](Cc1ccccc1)C(=O)N[C@H](C(=O)N[C@@H](CCC(=O)O)C(=O)N[C@@H](Cc1c[nH]c2ccccc12)C(=O)N[C@@H](CC(C)C)C(=O)N[C@@H](CCC(=O)O)C(=O)NCC(=O)NCC(=O)N1CCC[C@H]1C(=O)N[C@@H](CO)C(=O)N[C@@H](CO)C(=O)NCC(N)=O)C(C)C)C(=O)O)C(=O)O
B2: Compound 4 (peptide)
peptide: HXQGTFTSDKSKYLXERAAKEFVXWLEAGGPSSG
HELM: PEPTIDE1{H.[Aib].Q.G.T.F.T.S.D.K.S.K.Y.L.E.E.R.A.A.K.E.F.V.A.W.L.E.A.G.G.P.S.S.G.[am]}|PEPTIDE2{[CCCCCCCCCCCCCCCC(=O)[*:2]].[gGlu].[gGlu]}$PEPTIDE1,PEPTIDE2,10:R3-3:R2$$$V2.0; N-terminus assumed
SMILES: CCCCCCCCCCCCCCCC(=O)N[C@@H](CCC(=O)N[C@@H](CCC(=O)NCCCC[C@H](NC(=O)[C@H](CC(=O)O)NC(=O)[C@H](CO)NC(=O)[C@@H](NC(=O)[C@H](Cc1ccccc1)NC(=O)[C@@H](NC(=O)CNC(=O)[C@H](CCC(N)=O)NC(=O)C(C)(C)NC(=O)[C@@H](N)Cc1c[nH]cn1)[C@@H](C)O)[C@@H](C)O)C(=O)N[C@@H](CO)C(=O)N[C@@H](CCCCN)C(=O)N[C@@H](Cc1ccc(O)cc1)C(=O)N[C@@H](CC(C)C)C(=O)N[C@@H](CCC(=O)O)C(=O)N[C@@H](CCC(=O)O)C(=O)N[C@@H](CCCNC(=N)N)C(=O)N[C@@H](C)C(=O)N[C@@H](C)C(=O)N[C@@H](CCCCN)C(=O)N[C@@H](CCC(=O)O)C(=O)N[C@@H](Cc1ccccc1)C(=O)N[C@H](C(=O)N[C@@H](C)C(=O)N[C@@H](Cc1c[nH]c2ccccc12)C(=O)N[C@@H](CC(C)C)C(=O)N[C@@H](CCC(=O)O)C(=O)N[C@@H](C)C(=O)NCC(=O)NCC(=O)N1CCC[C@H]1C(=O)N[C@@H](CO)C(=O)N[C@@H](CO)C(=O)NCC(N)=O)C(C)C)C(=O)O)C(=O)O
B3: Compound 2 (peptide)
peptide: HXQGTFTSDKSKYLXERAAKEFVXWLEAGGPSSG
HELM: PEPTIDE1{H.[Aib].Q.G.T.F.T.S.D.K.S.K.Y.L.E.E.R.A.A.K.E.F.V.E.W.L.E.A.G.G.P.S.S.G.[am]}|PEPTIDE2{[CCCCCCCCCCCCCCCC(=O)[*:2]].[gGlu].[gGlu]}$PEPTIDE1,PEPTIDE2,10:R3-3:R2$$$V2.0; N-terminus assumed
SMILES: CCCCCCCCCCCCCCCC(=O)N[C@@H](CCC(=O)N[C@@H](CCC(=O)NCCCC[C@H](NC(=O)[C@H](CC(=O)O)NC(=O)[C@H](CO)NC(=O)[C@@H](NC(=O)[C@H](Cc1ccccc1)NC(=O)[C@@H](NC(=O)CNC(=O)[C@H](CCC(N)=O)NC(=O)C(C)(C)NC(=O)[C@@H](N)Cc1c[nH]cn1)[C@@H](C)O)[C@@H](C)O)C(=O)N[C@@H](CO)C(=O)N[C@@H](CCCCN)C(=O)N[C@@H](Cc1ccc(O)cc1)C(=O)N[C@@H](CC(C)C)C(=O)N[C@@H](CCC(=O)O)C(=O)N[C@@H](CCC(=O)O)C(=O)N[C@@H](CCCNC(=N)N)C(=O)N[C@@H](C)C(=O)N[C@@H](C)C(=O)N[C@@H](CCCCN)C(=O)N[C@@H](CCC(=O)O)C(=O)N[C@@H](Cc1ccccc1)C(=O)N[C@H](C(=O)N[C@@H](CCC(=O)O)C(=O)N[C@@H](Cc1c[nH]c2ccccc12)C(=O)N[C@@H](CC(C)C)C(=O)N[C@@H](CCC(=O)O)C(=O)N[C@@H](C)C(=O)NCC(=O)NCC(=O)N1CCC[C@H]1C(=O)N[C@@H](CO)C(=O)N[C@@H](CO)C(=O)NCC(N)=O)C(C)C)C(=O)O)C(=O)O

The binders below were run against human GLP-1 receptor (human, UniProt P43220 24-463) (assay: cell-based or functional assay).

Point of comparison: H[Aib]QGTFTSDK([γGlu-γGlu-Palmitoyl])SKYLEERAAKEFVEWLEGGPSSG-NH2 (not fully specified; printed as HAibQGTFTSDK*SKYLEERAAKEFVEWLEGGPSSG-Amid) [Compound 7], “EC50 of GLP-1 receptor mediated cAMP production” value 0.72 nM. Against it:
- B1 — 2.8-fold lower, 0.26 nM

The binders below were run against GC receptor (assay: cell-based or functional assay).

Point of comparison: B3, “EC50 of GC receptor mediated cAMP production” value 0.0352 nM. Against it:
- B2 — within 1.5-fold, 0.024 nM
- H[Aib]QGTFTSDK([AEEA-AEEA-γGlu-C18 diacid])SKYLEERAAKEFIAWLEGGPSSG-NH2 (not fully specified; printed as HAibQGTFTSDK**SKYLEERAAKEFIAWLEGGPSSG-Amid) [Compound 6] — within 1.5-fold, 0.052 nM
- H[Aib]QGTFTSDK([AEEA-AEEA-γGlu-C20 diacid])SKYLEERAAKEFIAWLEAGGPSSG-NH2 (not fully specified; printed as HAibQGTFTSDK***SKYLEERAAKEFIAWLEAGGPSSG-Amid) [Compound 35] — within 1.5-fold, 0.036 nM
- H[Aib]QGTFTSDK([AEEA-AEEA-γGlu-C18 diacid])SKYLDERAAKEFIAWLEGGPSSG-NH2 (not fully specified; printed as HAibQGTFTSDK**SKYLDERAAKEFIAWLEGGPSSG-Amid) [Compound 75] — 2.5-fold higher, 0.087 nM
- H[Aib]QGTFTSDK([AEEA-AEEA-γGlu-C20 diacid])SKYLDERAAKEFIAWLEAGGPSSG-NH2 (not fully specified; printed as HAibQGTFTSDK***SKYLDERAAKEFIAWLEAGGPSSG-Amid) [Compound 77] — 2.2-fold higher, 0.076 nM
